According to the supplement of paper PMC7877785:
± gives the uncertainty stated by the source.

Assay: self-splicing fitness, log relative to wild type (ln ratio); higher = more splicing; Tetrahymena group I intron in knt gene, E. coli kanamycin selection, DiMSum; sequences stand for … in CUCUCU…GGAGGGAAAAGUUAUCAGGCAUGCACCUGGUAGCUAGUCUUUAAACCAAUAGAUUGCAUCGGUUUAAAAGGCAAGACCGUCAAAUUGCGGGAAAGGGGUCAACAGCCGUUCAGUACCAAGUCUCAGGGGAAACUUUGAGAUGGCCUUGCAAAGGGUAUGGUAAUAAGCUGACGGACAUGGUCCUAACCACGCAGCCAAGUCCUAAGUCAACAGAUCUUCUGUUGAUAUGGAUGCAGUUCACAGACUAAAUGUCGGUCGGGGAAGAUGUAUUCUUCUCAUAAGAUAUAGUCGGACCUCUCCUUAAUGGGAGCUAGCGGAUGAAGUGAUGCAACACUGGAGCCGCUGGGAACUAAUUUGUAUGCGAAAGUAUAUUGAUUAGUUUUGGAGUACUCGUGGUCG
Outline: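 A randomised library covering all eight P1ex-region intron nucleotides was built with the intron in the knt kanamycin-resistance gene on pET-22b(+) and held in E. coli BL21(DE3). Cells were grown overnight at 37°C or 30°C on LB agar, with or without 25 μg/mL kanamycin, plus 100 μg/mL carbenicillin, 50 μM IPTG and 0.2% rhamnose, and pooled colonies were amplicon-sequenced on an Illumina HiSeq 2500. DiMSum fitness is the error-weighted combination of wild-type-normalised replicate fold changes, kanamycin versus none.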

Sequence	self-splicing fitness (ln) (30 °C)	self-splicing fitness (ln) (37 °C)
UGCUAGCAAUAUUACGUCAU	-2.72 ± 0.24	-2.61 ± 0.22
UAAGAGCAAUAUUACGUUGG	-2.87 ± 0.28	
GUAGAGCAAUAUUACGCUAA	-0.515 ± 0.07	-0.264 ± 0.089
CAUUAGCAAUAUUACGUGUU	-3.38 ± 0.18	-2.69 ± 0.2
AGAGAGCAAUAUUACGCGGA		-2.21 ± 0.34
AUUGAGCAAUAUUACGGGAC	-3.28 ± 0.42	
AAGCAGCAAUAUUACGGUAU	-1.55 ± 0.055	-1.13 ± 0.078
UGCUAGCAAUAUUACGCAGU	-3.21 ± 0.31	-2.51 ± 0.43
CUACAGCAAUAUUACGUGCC	-2.73 ± 0.26	-2.39 ± 0.38
CAGGAGCAAUAUUACGCCUC	-2.08 ± 0.23	
GUCUAGCAAUAUUACGAGUU	-2.13 ± 0.12	-1.32 ± 0.1
UGAGAGCAAUAUUACGUGAA	-4.19 ± 0.33	-2.35 ± 0.27
UCUUAGCAAUAUUACGGUCC	-3.99 ± 0.29	-2.74 ± 0.43
ACCAAGCAAUAUUACGAGUG	-2.09 ± 0.052	-1.14 ± 0.062
AGAAAGCAAUAUUACGAUAC	-1.78 ± 0.14	-1.54 ± 0.19
UCGUAGCAAUAUUACGCUCG	-1.9 ± 0.16	-1.2 ± 0.23
UUACAGCAAUAUUACGGCAG	-0.142 ± 0.077	0.248 ± 0.11
CCGUAGCAAUAUUACGGCGU	-2.57 ± 0.23	-1.86 ± 0.25
AUCAAGCAAUAUUACGAUAU	-1.21 ± 0.065	-0.753 ± 0.092
UAGGAGCAAUAUUACGGUAU	-2.93 ± 0.36	-2.66 ± 0.3
CCCAAGCAAUAUUACGGAAC	-3.54 ± 0.21	-2.62 ± 0.25
CGCAAGCAAUAUUACGUGUU	-3.48 ± 0.11	-2.9 ± 0.14
CCGUAGCAAUAUUACGAUCU		-2.46 ± 0.45
UCCUAGCAAUAUUACGUGAA	-0.777 ± 0.078	-0.552 ± 0.1
AGGAAGCAAUAUUACGGGCU	-1.72 ± 0.12	-0.915 ± 0.13
CGAGAGCAAUAUUACGGCAA		-2.79 ± 0.48

Sequence	self-splicing fitness (ln) (30 °C)	self-splicing fitness (ln) (37 °C)
GGUGAGCAAUAUUACGAUCA	-1.24 ± 0.13	-0.356 ± 0.15
UGCUAGCAAUAUUACGCGGA	-2.16 ± 0.12	-1.24 ± 0.12
UGCGAGCAAUAUUACGCUCA		0.239 ± 0.26
CAUGAGCAAUAUUACGCCCA	-1.49 ± 0.42	
UAAUAGCAAUAUUACGCAGG	-1.82 ± 0.1	-1.48 ± 0.14
CUCCAGCAAUAUUACGCCCC	-4.17 ± 0.46	
GGUGAGCAAUAUUACGUUAA	-1.89 ± 0.18	-1.09 ± 0.24
GUGAAGCAAUAUUACGGGCU	-2.08 ± 0.13	-0.869 ± 0.15
UAACAGCAAUAUUACGAGCC	-2.65 ± 0.24	-2.24 ± 0.49
GGUAAGCAAUAUUACGGUCG	-0.945 ± 0.066	-0.215 ± 0.1
CCGAAGCAAUAUUACGGUAU	-3.13 ± 0.25	-3.64 ± 0.36
GCAAAGCAAUAUUACGUCCA	-1.64 ± 0.12	-0.284 ± 0.11
CCAGAGCAAUAUUACGCCAU	-2.03 ± 0.19	-2.75 ± 0.27
GGACAGCAAUAUUACGUAGC	-0.679 ± 0.084	-0.618 ± 0.098
GGGUAGCAAUAUUACGUUCG	-0.742 ± 0.065	0.339 ± 0.086
GUCUAGCAAUAUUACGAUCG	-3.06 ± 0.17	-1.09 ± 0.16
AGGGAGCAAUAUUACGAGAG	-3.23 ± 0.4	-3.84 ± 0.46
AUACAGCAAUAUUACGUUAU	-3.44 ± 0.13	-2.04 ± 0.1
UAACAGCAAUAUUACGGAAG	-2.59 ± 0.12	-1.93 ± 0.12
UAAUAGCAAUAUUACGUUAA	-3.02 ± 0.23	-2.53 ± 0.19
UCCAAGCAAUAUUACGACUG	-3.78 ± 0.16	-2.6 ± 0.17
UACUAGCAAUAUUACGCAAC	-2.26 ± 0.26	-1.85 ± 0.34
UCGGAGCAAUAUUACGAUGA	-0.946 ± 0.15	-1.11 ± 0.16
UCCAAGCAAUAUUACGAACU	-2.6 ± 0.15	-1.06 ± 0.15
AGCCAGCAAUAUUACGAUUU	-2.3 ± 0.1	-1.24 ± 0.11
